Results on nine molecules are retold here after patent US7592163B2 (The Board of Trustees of the University of Illinois, priority 2004, dated 2009).

One data set concerns the target T1, N. crassa XR (Neurospora crassa, UniProt Q7SD67).
T1 sequence (Q7SD67 1-322): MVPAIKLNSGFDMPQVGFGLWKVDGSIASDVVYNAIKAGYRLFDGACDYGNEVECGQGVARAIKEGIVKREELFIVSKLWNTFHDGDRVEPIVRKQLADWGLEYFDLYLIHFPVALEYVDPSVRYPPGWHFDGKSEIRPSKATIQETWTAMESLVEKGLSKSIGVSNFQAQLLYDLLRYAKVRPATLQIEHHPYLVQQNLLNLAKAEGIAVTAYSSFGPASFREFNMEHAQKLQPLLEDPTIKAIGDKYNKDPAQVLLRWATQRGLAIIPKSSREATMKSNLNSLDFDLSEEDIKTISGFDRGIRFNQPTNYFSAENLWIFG
Put plainly: Kinetic analysis of N. crassa XR: initial rates, NAD(P)H consumption at 340 nm, with cofactors and sugar substrates. The following applies: for acts as substrate for N. crassa XR: NADPH as the cofactor; for fold difference in catalytic efficiency (kcat/KM) between NADPH and NADH: NADPH favoured over NADH; for kcat: xylose reduction with the named coenzyme, 25° C., 50 mM MOPS pH 6.3. The format is biochemical. How it is done: Michaelis-Menten constants (KM) were determined for both cofactors as well as for xylose with either cofactor. The maximum turnover number (kcat) was also determined with both cofactors. […] Xylose concentrations were varied from 10 to 250 mM while either cofactor concentration was held at 160 μM.
Analysis of substrate specificity.
Kinetic Analysis. […] All initial rate assays were carried out at 25° C. in 50 mM MOPS pH 6.3 using a Varian Cary 100 Bio UV-visible spectrophotometer unless otherwise noted. The reaction was initiated by addition of 0.1-1 μg of XR. […] The data were then converted to turnover number and fitted by non-linear regression analysis to the Michaelis-Menten equation using Origin 5.0. […] All assays were performed in duplicate or triplicate at least two times. The kinetic data presented represent averages of statistically relevant measurements and with their associated standard deviations.

For data set [1] the following is noted: literature, cited from earlier work; for kcat / Km: with NADPH as cofactor; for Km: read-out: KM, Xylose.
Substrate in data set [2]: OC1OC[C@@H](O)[C@H](O)[C@H]1O
Put plainly: Kinetic analysis of N. crassa XR: initial rates, NAD(P)H consumption at 340 nm, with cofactors and sugar substrates. The following applies: other: KM of the sugar substrate, NADPH as cofactor, 25° C., 50 mM MOPS pH 6.3. In kind it is biochemical, Neurospora crassa.

Substrate in data set [3]: OC1OC[C@@H](O)[C@@H](O)[C@H]1O
The description is as above. The format is biochemical, Neurospora crassa. The following applies: other: KM of the sugar substrate, NADPH as cofactor, 25° C., 50 mM MOPS pH 6.3.

Substrate in data set [4]: OC1OC[C@H](O)[C@H](O)[C@H]1O
Described as above. The following applies: other: KM of the sugar substrate, NADPH as cofactor, 25° C., 50 mM MOPS pH 6.3. The format is biochemical, Neurospora crassa.

For orientation: kcat means the number of substrate molecules converted per active site and unit of time at saturation. As a reminder, the Km is the substrate concentration at which the rate is half of its maximum. What is called kcat/Km is the second-order rate constant that governs catalysis at low substrate concentration.

Take `OC[C@H]1O[C@@](CO)(O[C@H]2O[C@H](CO)[C@@H](O)[C@H](O)[C@H]2O)[C@@H](O)[C@@H]1O` [sucrose]: the “acts as substrate for N. crassa XR” value at N. crassa XR is listed as “did not act as substrates”.
As to “Nicotinamide adenine dinucleotide reduced [NADH]”, on N. crassa XR, the “fold difference in catalytic efficiency (kcat/KM) between NADPH and NADH” value is 100 fold; the kcat is 5.17 ± 0.167 s⁻¹.
Turning to `O=C[C@@H](O)[C@H](O)[C@H](O)CO` [D-arabinose], the results for the “acts as substrate for N. crassa XR” value at N. crassa XR and on N. crassa XR (listed as D-arabinos) were “did not act as substrates” and “activity”, respectively.
“Nicotinamide adenine dinucleotide phosphate reduced [NADPH]”: at N. crassa XR, the “fold difference in catalytic efficiency (kcat/KM) between NADPH and NADH” value was 100 fold; the kcat turned out to be 60 ± 1.67 s⁻¹.
On to `O=C(CO)[C@@H](O)[C@H](O)[C@H](O)CO` [D-fructose], for which the “acts as substrate for N. crassa XR” value on N. crassa XR was “did not act as substrates”.

B1: C. tenuis: xylose reductase from Candida tenuis, literature (protein, UniProt O74237 1-322, looked up)
NAD(P)H-dependent D-xylose …: MSASIPDIKLSSGHLMPSIGFGCWKLANATAGEQVYQAIKAGYRLFDGAEDYGNEKEVGDGVKRAIDEGLVKREEIFLTSKLWNNYHDPKNVETALNKTLADLKVDYVDLFLIHFPIAFKFVPIEEKYPPGFYCGDGNNFVYEDVPILETWKALEKLVAAGKIKSIGVSNFPGALLLDLLRGATIKPAVLQVEHHPYLQQPKLIEFAQKAGVTITAYSSFGPQSFVEMNQGRALNTPTLFAHDTIKAIAAKYNKTPAEVLLRWAAQRGIAVIPKSNLPERLVQNRSFNTFDLTKEDFEEIAKLDIGLRFNDPWDWDNIPIFV
Take B1: the “NADH-dependent XR kcat” value in data set [1] (NADH as cofactor) was 18.33 s⁻¹. Moreover, in data set [1], the “Optimal pH” value is listed as 6.0, the turnover number (kcat) is 21.67 s⁻¹ and the Michaelis-Menten constant (Km) was 72 mM.

B2: N. crassa XR (Neurospora crassa OR74A) (protein)
chain: MVPAIKLNSGFDMPQVGFGLWKVDGSIASDVVYNAIKAGYRLFDGACDYGNEVECGQGVARAIKEGIVKREELFIVSKLWNTFHDGDRVEPIVRKQLADWGLEYFDLYLIHFPVALEYVDPSVRYPPGWHFDGKSEIRPSKATIQETWTAMESLVEKGLSKSIGVSNFQAQLLYDLLRYAKVRPATLQIEHHPYLVQQNLLNLAKAEGIAVTAYSSFGPASFREFNMEHAQKLQPLLEDPTIKAIGDKYNKDPAQVLLRWATQRGLAIIPKSSREATMKSNLNSLDFDLSEEDIKTISGFDRGIRFNQPTNYFSAENLWIFG
With B2, in data set [2], the Km turned out to be 34 mM, the kcat was determined as 60 ± 3.33 s⁻¹ and the kcat/Km amounted to 1830 M⁻¹ s⁻¹. Moreover, in data set [3], the Km amounted to 70 ± 10 mM and the kcat/Km came out at 750 M⁻¹ s⁻¹. Besides, in data set [4], the Km is 40 ± 10 mM, the catalytic constant (kcat) amounted to 30 ± 1.67 s⁻¹ and the kcat/Km is 750 M⁻¹ s⁻¹.

B3: S. cerevisiae: xylose reductase from S. cerevisiae, literature (protein, UniProt P38715 2-327, looked up)
NADPH-dependent aldose …: SSLVTLNNGLKMPLVGLGCWKIDKKVCANQIYEAIKLGYRLFDGACDYGNEKEVGEGIRKAISEGLVSRKDIFVVSKLWNNFHHPDHVKLALKKTLSDMGLDYLDLYYIHFPIAFKYVPFEEKYPPGFYTGADDEKKGHITEAHVPIIDTYRALEECVDEGLIKSIGVSNFQGSLIQDLLRGCRIKPVALQIEHHPYLTQEHLVEFCKLHDIQVVAYSSFGPQSFIEMDLQLAKTTPTLFENDVIKKVSQNHPGSTTSQVLLRWATQRGIAVIPKSSKKERLLGNLEIEKKFTLTEQELKDISALNANIRFNDPWTWLDGKFPTFA
In the case of B3, in data set [1], the kcat was 14.3 s⁻¹ and the Km is 13.6 mM.

B4: P. stipitus: NADPH-dependent xylose reductase from P. stipitus, literature (protein, UniProt P31867 1-318, looked up)
NAD(P)H-dependent D-xylose …: MPSIKLNSGYDMPAVGFGCWKVDVDTCSEQIYRAIKTGYRLFDGAEDYANEKLVGAGVKKAIDEGIVKREDLFLTSKLWNNYHHPDNVEKALNRTLSDLQVDYVDLFLIHFPVTFKFVPLEEKYPPGFYCGKGDNFDYEDVPILETWKALEKLVKAGKIRSIGVSNFPGALLLDLLRGATIKPSVLQVEHHPYLQQPRLIEFAQSRGIAVTAYSSFGPQSFVELNQGRALNTSPLFENETIKAIAAKHGKSPAQVLLRWSSQRGIAIIPKSNTVPRLLENKDVNSFDLDEQDFADIAKLDINLRFNDPWDWDKIPIFV
In the case of B4, in data set [1], the “Optimal pH” value was 6.0, the kcat is 25 s⁻¹ and the Km is 42 mM.
